Columns and labels:
[1] = target: AAV2 D529A (adeno-associated virus serotype 2 (AAV2)) (UniProt P03135); test: affinity HPLC, POROS AAVX resin, linear pH gradient 4.5 to 2.2, AAV2 peak top
[2] = target: AAV2 E499A (adeno-associated virus serotype 2 (AAV2)) (UniProt P03135); test: as above
[3] = target: AAV2 N382A (adeno-associated virus serotype 2 (AAV2)) (UniProt P03135); test: as above
[4] = target: AAV2 Q385A (adeno-associated virus serotype 2 (AAV2)) (UniProt P03135); test: as above
[5] = target: AAV2 R471A (adeno-associated virus serotype 2 (AAV2)) (UniProt P03135); test: as above
[6] = target: AAV2 S264A (adeno-associated virus serotype 2 (AAV2)) (UniProt P03135); test: as above
[7] = target: AAV2 S267A (adeno-associated virus serotype 2 (AAV2)) (UniProt P03135); test: as above
[8] = target: AAV2 S384A (adeno-associated virus serotype 2 (AAV2)) (UniProt P03135); test: as above
[9] = target: AAV2 T503S (adeno-associated virus serotype 2 (AAV2)) (UniProt P03135); test: as above
[10] = target: AAV2 (wild type), serotype 2 AAV with capsid region VP1 of SEQ ID NO: 99 (adeno-associated virus serotype 2 (AAV2)) (UniProt P03135); test: affinity HPLC, POROS AAVX resin, linear pH gradient 6.0 to 2.0, AAV2 peak top
[11] = target: AAV2 D528A (adeno-associated virus serotype 2 (AAV2)) (UniProt P03135); test: as above
[12] = target: AAV2 D529A (adeno-associated virus serotype 2 (AAV2)) (UniProt P03135); test: as above
[13] = target: AAV2 D529E (adeno-associated virus serotype 2 (AAV2)) (UniProt P03135); test: as above
[14] = target: AAV2 E499A (adeno-associated virus serotype 2 (AAV2)) (UniProt P03135); test: as above
[15] = target: AAV2 G383A (adeno-associated virus serotype 2 (AAV2)) (UniProt P03135); test: as above
[16] = target: AAV2 H271A (adeno-associated virus serotype 2 (AAV2)) (UniProt P03135); test: as above
[17] = target: AAV2 H271F (adeno-associated virus serotype 2 (AAV2)) (UniProt P03135); test: as above
[18] = target: AAV2 H271Q (adeno-associated virus serotype 2 (AAV2)) (UniProt P03135); test: as above
[19] = target: AAV2 H271T (adeno-associated virus serotype 2 (AAV2)) (UniProt P03135); test: as above
[20] = target: AAV2 N382A (adeno-associated virus serotype 2 (AAV2)) (UniProt P03135); test: as above
[21] = target: AAV2 Q263A (adeno-associated virus serotype 2 (AAV2)) (UniProt P03135); test: as above
[22] = target: AAV2 Q385A (adeno-associated virus serotype 2 (AAV2)) (UniProt P03135); test: as above
[23] = target: AAV2 R471A (adeno-associated virus serotype 2 (AAV2)) (UniProt P03135); test: as above
[24] = target: AAV2 S264A (adeno-associated virus serotype 2 (AAV2)) (UniProt P03135); test: as above
[25] = target: AAV2 S267A (adeno-associated virus serotype 2 (AAV2)) (UniProt P03135); test: as above
[26] = target: AAV2 S267T (adeno-associated virus serotype 2 (AAV2)) (UniProt P03135); test: as above
[27] = target: AAV2 S384A (adeno-associated virus serotype 2 (AAV2)) (UniProt P03135); test: as above
[28] = target: AAV2 T503S (adeno-associated virus serotype 2 (AAV2)) (UniProt P03135); test: as above

Substance: POROS Capture Select AAVX Affinity Resin (manufactured by Thermo Fisher Scientific)
- AAVX column elution time [1]: 47.8 min
- AAVX column elution time [2]: 47.8 min
- AAVX column elution time [3]: 47.9 min
- AAVX column elution time [4]: 47.9 min
- AAVX column elution time [5]: 48.1 min
- AAVX column elution time [6]: 48 min
- AAVX column elution time [7]: 48 min
- AAVX column elution time [8]: 48 min
- AAVX column elution time [9]: 48 min
- AAVX column elution time [10]: 59.3 min
- AAVX column elution time [11]: 59.1 min
- AAVX column elution time [12]: 59.3 min
- AAVX column elution time [13]: 59.3 min
- AAVX column elution time [14]: 59.3 min
- AAVX column elution time [15]: 59.3 min
- AAVX column elution time [16]: 59.4 min
- AAVX column elution time [17]: 59.3 min
- AAVX column elution time [18]: 59.3 min
- AAVX column elution time [19]: 59.3 min
- AAVX column elution time [20]: 59.2 min
- AAVX column elution time [21]: 59.3 min
- AAVX column elution time [22]: 59.3 min
- AAVX column elution time [23]: 59.4 min
- AAVX column elution time [24]: 59.2 min
- AAVX column elution time [25]: 59.3 min
- AAVX column elution time [26]: 59.2 min
- AAVX column elution time [27]: 59.3 min
- AAVX column elution time [28]: 59.4 min

Reference: patent publication US20250236657A1 (TOSOH, published 2025)
